Reference: the RNAGym collection of RNA variant scans (doi:10.7554/elife.80360)

B1: Hammerhead Ribozyme (parent)
chain: ACCGGAUGUGCUUUCCGGUCUGAUGAGUCCGUGAGGACGAAACAG

Variants of: B1
Experiment: self-cleavage, relative activity (ratio to wild type); higher = more cleavage; co-transcriptional

**Q.** With ACCGGAUGUGCUUGCCGGUCUGAUGAGUACGUGAGGACGAAACAG [U14G C29A] as the variant, how does the self-cleavage read?
**A.** Its self-cleavage is 0.677.

**Q.** Which self-cleavage does the source give for ACCGGAUGUGCUUGCCGGUCUGAUGAGUGCGUGAGGACGAAACAG [U14G C29G] here?
**A.** The self-cleavage was 0.737.

**Q.** For ACCGGAUGUGCUUGCCGGUCUGAUGAGUUCGUGAGGACGAAACAG [U14G C29U], which self-cleavage is on record?
**A.** Its self-cleavage is 0.625.

**Q.** For ACCGGAUGUGCUUGCCUGUCUGAUGAGUCCGUGAGGACGAAACAG [U14G G17U], which self-cleavage is on record?
**A.** Its self-cleavage is 0.485.

**Q.** With ACCGGAUGUGCUUGCCCGUCUGAUGAGUCCGUGAGGACGAAACAG [U14G G17C] as the variant, how does the self-cleavage read?
**A.** Its self-cleavage is 0.27.

**Q.** Which self-cleavage does the source give for ACCGGAUGUGCUUGCCAGUCUGAUGAGUCCGUGAGGACGAAACAG [U14G G17A] here?
**A.** Its self-cleavage is 0.544.

**Q.** For ACCGGAUGUGCUUGCCGGUCUGAUGAGUCCGUGAGGAAGAAACAG [U14G C38A], which self-cleavage is on record?
**A.** Its self-cleavage is 0.435.

**Q.** Which self-cleavage does the source give for ACCGGAUGUGCUUGCCGGUCUGAUGAGUCCGUGAGGAGGAAACAG [U14G C38G] here?
**A.** Its self-cleavage is 0.603.

**Q.** With ACCGGAUGUGCUUGCCGGUCUGAUGAGUCCGUGAGGAUGAAACAG [U14G C38U] as the variant, how does the self-cleavage read?
**A.** Its self-cleavage is 0.796.

**Q.** Which self-cleavage does the source give for ACCGGAUGUGCUUGCCGGUCUGAUGAGUCCGUGAGGACGAAAUAG [U14G C43U] here?
**A.** The self-cleavage was 0.547.

**Q.** With ACCGGAUGUGCUUGCCGGUCUGAUGAGUCCGUGAGGACGAAAGAG [U14G C43G] as the variant, how does the self-cleavage read?
**A.** The self-cleavage was 0.416.

**Q.** Which self-cleavage does the source give for ACCGGAUGUGCUUGCCGGUCUGAUGAGUCCGUGAGGACGAAAAAG [U14G C43A] here?
**A.** Its self-cleavage is 0.304.

**Q.** With ACCGGAUGUGCUUGCCGGUCUGAUGAGUCCGUGAGGGCGAAACAG [U14G A37G] as the variant, how does the self-cleavage read?
**A.** The self-cleavage was 0.782.

**Q.** Which self-cleavage does the source give for ACCGGAUGUGCUUGCCGGUCUGAUGAGUCCGUGAGGCCGAAACAG [U14G A37C] here?
**A.** The self-cleavage was 0.777.

**Q.** For ACCGGAUGUGCUUGCCGGUCUGAUGAGUCCGUGAGGUCGAAACAG [U14G A37U], which self-cleavage is on record?
**A.** Its self-cleavage is 0.566.

**Q.** Which self-cleavage does the source give for ACCGGAUGUGCUUGCCGUUCUGAUGAGUCCGUGAGGACGAAACAG [U14G G18U] here?
**A.** Its self-cleavage is 0.522.

**Q.** For ACCGGAUGUGCUUGCCGAUCUGAUGAGUCCGUGAGGACGAAACAG [U14G G18A], which self-cleavage is on record?
**A.** Its self-cleavage is 0.54.

**Q.** For ACCGGAUGUGCUUGCCGCUCUGAUGAGUCCGUGAGGACGAAACAG [U14G G18C], which self-cleavage is on record?
**A.** Its self-cleavage is 0.533.

**Q.** Which self-cleavage does the source give for ACCGGAUGUGCUUGCCGGUCUGAUUAGUCCGUGAGGACGAAACAG [U14G G25U] here?
**A.** The self-cleavage was 0.28.

**Q.** For ACCGGAUGUGCUUGCCGGUCUGAUAAGUCCGUGAGGACGAAACAG [U14G G25A], which self-cleavage is on record?
**A.** The self-cleavage was 0.315.

**Q.** Which self-cleavage does the source give for ACCGGAUGUGCUUGCCGGUCUGAUCAGUCCGUGAGGACGAAACAG [U14G G25C] here?
**A.** The self-cleavage was 0.315.

**Q.** Which self-cleavage does the source give for ACCGGAUGUGCUUGCCGGUCUGAUGAGUCCGUGCGGACGAAACAG [U14G A34C] here?
**A.** The self-cleavage was 0.875.

**Q.** With ACCGGAUGUGCUUGCCGGUCUGAUGAGUCCGUGGGGACGAAACAG [U14G A34G] as the variant, how does the self-cleavage read?
**A.** Its self-cleavage is 0.652.

**Q.** With ACCGGAUGUGCUUGCCGGUCUGAUGAGUCCGUGUGGACGAAACAG [U14G A34U] as the variant, how does the self-cleavage read?
**A.** Its self-cleavage is 0.782.

**Q.** Which self-cleavage does the source give for ACCGGAUGUGCUUGCCGGUCUGAUGAGUCCGUGAGGACGAAACGG [U14G A44G] here?
**A.** The self-cleavage was 1.32.

**Q.** For ACCGGAUGUGCUUGCCGGUCUGAUGAGUCCGUGAGGACGAAACCG [U14G A44C], which self-cleavage is on record?
**A.** The self-cleavage was 0.681.

**Q.** For ACCGGAUGUGCUUGCCGGUCUGAUGAGUCCGUGAGGACGAAACUG [U14G A44U], which self-cleavage is on record?
**A.** Its self-cleavage is 0.609.

**Q.** For ACCGGAUGUGCUUGCGGGUCUGAUGAGUCCGUGAGGACGAAACAG [U14G C16G], which self-cleavage is on record?
**A.** The self-cleavage was 0.476.

**Q.** With ACCGGAUGUGCUUGCUGGUCUGAUGAGUCCGUGAGGACGAAACAG [U14G C16U] as the variant, how does the self-cleavage read?
**A.** The self-cleavage was 0.849.

**Q.** For ACCGGAUGUGCUUGCAGGUCUGAUGAGUCCGUGAGGACGAAACAG [U14G C16A], which self-cleavage is on record?
**A.** The self-cleavage was 0.642.

**Q.** Which self-cleavage does the source give for ACCGGAUGUGCUUGCCGGUCUAAUGAGUCCGUGAGGACGAAACAG [U14G G22A] here?
**A.** Its self-cleavage is 0.314.

**Q.** With ACCGGAUGUGCUUGCCGGUCUUAUGAGUCCGUGAGGACGAAACAG [U14G G22U] as the variant, how does the self-cleavage read?
**A.** The self-cleavage was 0.394.

**Q.** With ACCGGAUGUGCUUGCCGGUCUCAUGAGUCCGUGAGGACGAAACAG [U14G G22C] as the variant, how does the self-cleavage read?
**A.** Its self-cleavage is 0.301.

**Q.** For ACCGGAUGUGCUUGCCGGUCUGAUGAGUCCGUGAGGACGGAACAG [U14G A40G], which self-cleavage is on record?
**A.** The self-cleavage was 0.366.

**Q.** With ACCGGAUGUGCUUGCCGGUCUGAUGAGUCCGUGAGGACGUAACAG [U14G A40U] as the variant, how does the self-cleavage read?
**A.** Its self-cleavage is 0.356.

**Q.** Which self-cleavage does the source give for ACCGGAUGUGCUUGCCGGUCUGAUGAGUCCGUGAGGACGCAACAG [U14G A40C] here?
**A.** Its self-cleavage is 0.52.

**Q.** With ACCGGAUGUGCUUGCCGGUCUGAUGAGUCCGUGAGGACGACACAG [U14G A41C] as the variant, how does the self-cleavage read?
**A.** The self-cleavage was 0.34.

**Q.** For ACCGGAUGUGCUUGCCGGUCUGAUGAGUCCGUGAGGACGAUACAG [U14G A41U], which self-cleavage is on record?
**A.** The self-cleavage was 0.367.

**Q.** Which self-cleavage does the source give for ACCGGAUGUGCUUGCCGGUCUGAUGAGUCCGUGAGGACGAGACAG [U14G A41G] here?
**A.** Its self-cleavage is 0.3.

**Q.** With ACCGGAUGUGCUUGCCGGUCUGAUGACUCCGUGAGGACGAAACAG [U14G G27C] as the variant, how does the self-cleavage read?
**A.** The self-cleavage was 0.618.

**Q.** Which self-cleavage does the source give for ACCGGAUGUGCUUGCCGGUCUGAUGAAUCCGUGAGGACGAAACAG [U14G G27A] here?
**A.** Its self-cleavage is 0.757.

**Q.** For ACCGGAUGUGCUUGCCGGUCUGAUGAUUCCGUGAGGACGAAACAG [U14G G27U], which self-cleavage is on record?
**A.** Its self-cleavage is 0.515.

**Q.** Which self-cleavage does the source give for ACCGGAUGUGCUUGCCGGUCUGAUGAGUCCAUGAGGACGAAACAG [U14G G31A] here?
**A.** Its self-cleavage is 0.929.

**Q.** With ACCGGAUGUGCUUGCCGGUGUGAUGAGUCCGUGAGGACGAAACAG [U14G C20G] as the variant, how does the self-cleavage read?
**A.** The self-cleavage was 0.297.

**Q.** Which self-cleavage does the source give for ACCGGAUGUGCUUGCCGGUAUGAUGAGUCCGUGAGGACGAAACAG [U14G C20A] here?
**A.** Its self-cleavage is 0.481.

**Q.** For ACCGGAUGUGCUUGCCGGUUUGAUGAGUCCGUGAGGACGAAACAG [U14G C20U], which self-cleavage is on record?
**A.** The self-cleavage was 0.393.

**Q.** For ACCGGAUGUGCUUGCCGGUCUGAUGGGUCCGUGAGGACGAAACAG [U14G A26G], which self-cleavage is on record?
**A.** The self-cleavage was 0.223.

**Q.** With ACCGGAUGUGCUUGCCGGUCUGAUGUGUCCGUGAGGACGAAACAG [U14G A26U] as the variant, how does the self-cleavage read?
**A.** The self-cleavage was 0.569.

**Q.** Which self-cleavage does the source give for ACCGGAUGUGCUUGCCGGUCUGAUGAGUCCGUGAGGACGAACCAG [U14G A42C] here?
**A.** The self-cleavage was 0.382.

**Q.** Which self-cleavage does the source give for ACCGGAUGUGCUUGCCGGUCUGAUGAGUCCGUGAGGACGAAUCAG [U14G A42U] here?
**A.** Its self-cleavage is 0.268.

**Q.** For ACCGGAUGUGCUUGCCGGUCUGAUGAGUCCGUGAGGACGAAGCAG [U14G A42G], which self-cleavage is on record?
**A.** Its self-cleavage is 0.381.

**Q.** Which self-cleavage does the source give for ACCGGAUGUGCUUGCCGGUCUGAUGAGUCGGUGAGGACGAAACAG [U14G C30G] here?
**A.** The self-cleavage was 0.721.

**Q.** With ACCGGAUGUGCUUGCCGGUCUGAUGAGUCAGUGAGGACGAAACAG [U14G C30A] as the variant, how does the self-cleavage read?
**A.** The self-cleavage was 0.924.

**Q.** With ACCGGAUGUGCUUGCCGGUCUGAUGAGUCUGUGAGGACGAAACAG [U14G C30U] as the variant, how does the self-cleavage read?
**A.** Its self-cleavage is 0.552.

**Q.** With ACCGGAUGUGCUUGUCGGUCUGAUGAGUCCGUGAGGACGAAACAG [U14G C15U] as the variant, how does the self-cleavage read?
**A.** The self-cleavage was 0.581.

**Q.** With ACCGGAUGUGCUUGACGGUCUGAUGAGUCCGUGAGGACGAAACAG [U14G C15A] as the variant, how does the self-cleavage read?
**A.** The self-cleavage was 0.659.

**Q.** Which self-cleavage does the source give for ACCGGAUGUGCUUGGCGGUCUGAUGAGUCCGUGAGGACGAAACAG [U14G C15G] here?
**A.** Its self-cleavage is 0.771.
